Laboratory results published in patent US20220153854A1 (Ablynx, published 2022).

Legend:
[1] = molecular target: T1, mouse serum albumin (mouse, UniProt P07724 25-608); experiment: Gyrolab in-solution affinity, 2 h incubation; 95% CI 101-117 nM
T1 construct: also called mouse SA

[2] = molecular target: T2, human serum albumin (human, UniProt P02768 25-609); experiment: Gyrolab in-solution affinity, 2 h incubation; 95% CI 6.7-8.9 nM
T2 construct: also called HSA; HAS
Protocol: (§1) Under receptor-controlled measurements a serial dilution of OX40L (ranging from 1.3 μM-0.031 μM), IL-13 (ranging from 0.1 μM-0.25 fM), or serum albumin (ranging from 100 μM-3.2 μM) and a fixed amount of ISVD construct F027100187 (5 nM in case of OX40L, […] in case of IL-13 and 30 nM in case of HSA and cyno SA) were mixed to allow interaction and incubated for either 24 or 48 hours (in case of OX40L and IL-13) or 2 hours (in case of serum albumin) to reach equilibrium.
(§2) Biotinylated human OX40L/IL-13/serum albumin was captured in the microstructures of a Gyrolab Bioaffy 1000 CD, which contains columns of beads and was used as a molecular probe to capture free F027100187 from the equilibrated solution. The mixture of OX40L/IL13/serum albumin and F027100187 (containing free OX40UIL-13/serum albumin, free F027100187 and OX40L/IL13/serum albumin—F027100187 complexes) was allowed to flow through the beads, and a small percentage of free F027100187 was captured, which is proportional to the free ISVD construct concentration. A fluorescently labeled anti-ISVD antibody, ABH0086-Alexa647, was then injected to label any captured F027100187 and after rinsing away excess of fluorescent probe, the change in fluorescence was determined. Fitting of the dilution series was done using Gyrolab Analysis software, where KD- and receptor-controlled curves were analyzed to determine the KD value.

[3] = molecular target: T3, human IL-13 (human, UniProt P35225 35-146, limits assumed); experiment: Gyrolab in-solution affinity, 48 h incubation; 95% CI 6.4-9.1 pM
T3 construct: Recombinant soluble protein; also called hIL-13; soluble hIL-13
T3 sequence (P35225 35-146 limits assumed): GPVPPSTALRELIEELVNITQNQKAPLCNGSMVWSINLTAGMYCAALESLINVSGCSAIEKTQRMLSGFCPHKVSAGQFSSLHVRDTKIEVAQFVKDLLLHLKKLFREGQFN
Protocol: as §1, §2

[4] = molecular target: T3, human IL-13; experiment: cell-based or functional assay
[5] = molecular target: T4, membrane bound human OX40L on CHO-KI cells (human, UniProt P23510 1-183); experiment: flow cytometry on fixed CHO-KI cells expressing human OX40L, 48 h incubation
T4 construct: whole, on cells; also called CHO-KI cells expressing human OX40L
T4 sequence (looked up): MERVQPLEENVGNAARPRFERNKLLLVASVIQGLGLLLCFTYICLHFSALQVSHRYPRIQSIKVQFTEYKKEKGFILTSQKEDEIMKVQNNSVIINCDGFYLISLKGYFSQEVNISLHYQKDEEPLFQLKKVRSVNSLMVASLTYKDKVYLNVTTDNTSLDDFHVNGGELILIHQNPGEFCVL
Protocol: Briefly, cells were fixed with 4% paraformaldehyde and 0.1% Glutaraldehyde in PBS, seeded at a density of 1×10⁴ cells/well and incubated with a dilution series of ISVD F027100187 or reference compound anti-hOX40L mAb, named Comparator 3, starting from 100 nM […] 0.5 μM, for 48 hours at room temperature. Comparator 3 is a standard conventional monoclonal antibody directed against human OX40L, which is used as a reference throughout the Examples 1 to 12 described herein. Cells were washed 3 times and subsequently incubated with an anti-VHH mAb (ABH00119) for 30 min at 4° C., washed again, and incubated for 30 min at 4° C. with a goat anti-mouse PE or FITC labeled antibody. Samples were washed and resuspended in FACS Buffer (D-PBS with 10% FBS and 0.05% sodium azide supplemented with 5 nM TOPRO3). Cell suspensions were then analyzed on an iQuescreener. EC50 values were calculated using GraphPad Prism.

T2 sequence (P02768 25-609 limits assumed): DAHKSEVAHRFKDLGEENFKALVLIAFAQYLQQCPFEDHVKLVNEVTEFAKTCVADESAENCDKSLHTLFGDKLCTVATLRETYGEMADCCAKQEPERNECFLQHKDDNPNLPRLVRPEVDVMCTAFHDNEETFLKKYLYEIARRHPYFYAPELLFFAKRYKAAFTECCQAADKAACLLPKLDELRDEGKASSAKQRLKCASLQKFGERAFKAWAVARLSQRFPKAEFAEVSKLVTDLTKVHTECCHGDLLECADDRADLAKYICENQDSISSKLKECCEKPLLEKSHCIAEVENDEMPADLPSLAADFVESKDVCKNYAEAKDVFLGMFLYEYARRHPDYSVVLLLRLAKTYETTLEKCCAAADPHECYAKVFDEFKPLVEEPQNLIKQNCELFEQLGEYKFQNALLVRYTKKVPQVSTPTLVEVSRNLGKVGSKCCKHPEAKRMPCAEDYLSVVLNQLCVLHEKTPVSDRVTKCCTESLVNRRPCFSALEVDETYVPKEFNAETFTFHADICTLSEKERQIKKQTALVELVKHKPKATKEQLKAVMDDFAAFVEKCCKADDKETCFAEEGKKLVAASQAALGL

- Kd [1]: 109 nM
- Kd [2]: 7.8 nM
- Kd [3]: 0.0078 nM
- CCL26 IC50 (pM), triculture assay [4]: 40.7 pM
- EC50 [5]: 0.0235 nM
B1: ISVD construct F027100187 (other)
chain: DVQLVESGGGVVQPGGSLRLSCAASRSIGRYDRMGWYRHRPGEPRELVATITGGSSINYGDSVKGRFTISIDNSKNTVYLQMNSLRPEDTALYYCNFNKYQISRDTWGQGTLVTVSSGGGGSGGGSEVQLVESGGGVVQPGGSLRLSCAASGRTFSSYRMGWFRQAPGKEREFVAALSGDGYSTYTANSVKGRFTISRDNSKNTVYLQMNSLRPEDTALYYCAAKLQYVSGWSYDYPYWGQGTLVTVSSGGGGSGGGSEVQLVESGGGVVQPGGSLRLSCAASGFTFRSFGMSWVRQAPGKGPEWVSSISGSGSDTLYADSVKGRFTISRDNSKNTLYLQMNSLRPEDTALYYCTIGGSLSRSSQGTLVTVSSGGGGSGGGSEVQLVESGGGVVQPGGSLRLSCAASGFTFNNYAMKWVRQAPGKGLEWVSSITTGGGSTDYADSVKGRFTISRDNSKNTLYLQMNSLRPEDTALYYCANVPFGYYSEHFSGLSFDYRGQGTLVTVSSA
notes: Tetravalent, trispecific single-chain construct of four VHH (ISVD) domains: one against OX40L, two against IL-13, one against serum albumin; also called F0271000187; F27100187
